Data from patent US10100120B2, “Antibody which specifically binds to human CRTH2” (KYOWA HAKKO KIRIN CO., LTD, priority 2015, dated 2018).

Experiments:
human basophils = assay: Basophil depletion (cytotoxic) activity in human peripheral blood cells, flow cytometry; type: cell-based; details: 37° C., 20 hours
Method: Human peripheral blood collected by adding a heparin sodium injection liquid was centrifuged at 4° C. and 1500 rpm for 30 minutes, and the plasma was recovered.
After the plasma was recovered, PBS (NACALAI TESQUE, Inc.) was added to the pellet containing the red blood up to the original volume of blood and the pellet was suspended. Next, to 1 mL of the suspension, 10 mL of hemolyzing solution [solution obtained by diluting 10×RBC Lysis buffer (eBioscience) 10 times with sterile water] was added to be mixed by inversion. The resultant was allowed to stand at room temperature for 10 minutes and centrifuged at room temperature and 1500 rpm for 5 minutes and washed twice with PBS after the supernatant was removed therefrom.
Thereafter, the cell pellet was suspended with the recovered plasma and the cells were seeded in a 48-well plate at 300 μL/well, each of chLym2, humanized Lym2 antibodies LV0HV0, LV0HV1, and LV0HV2a, or an isotype control antibody [IgG1 antibody prepared according to the method described in Example 5 using a vector encoding an anti-2,4-dinitrophenol (DNP) IgG1 antibody described in Clin Cancer Res 2005, 11(8), 3126 to 3135 (hereinafter, referred to as anti-DNP IgG1 antibody)] were added at each final concentrations of 1000, 100, 33, 11, 3.7, 1.2, 0.4, and 0.01 ng/mL to cause a reaction in a 5% CO2 incubator at 37° C. for 20 hours.
After the reaction, the cell fluid in each well was recovered, 10 mL of SM was added thereto, 200 μL per sample of CountBright Absolute Counting Beads, for flow cytometry (Molecular Probes) was added as control beads, and the fluid was centrifuged at 4° C. and 2000 rpm for 10 minutes, and then the supernatant was removed. The resultant was washed twice with SM, 10000 μg/mL of IgG from human serum (Sigma-Aldrich Co. LLC) diluted with SM was added at 300 μL/sample and suspended to cause a reaction at 4° C. for 30 minutes. […]
The cells were washed twice with SM, suspended by SM containing 1% of 7-AAD Staining Solution (BD Biosciences), allowed to stand at 4° C. for 10 minutes, and the fluorescent intensity was analyzed by flow cytometry (BD Biosciences, FACS CantoII).
Human eosinophils were detected as 7-AAD negative siglec8-PE positive fractions in granulocyte fractions of FSC-SSC deployment. Human basophils were detected as 7-AAD negative fractions, CD123-PC-Cy7 positive fractions, FcεRI-APC positive fractions in lymphocyte fractions of FSC-SSC deployment. The cell depletion activity was evaluated by analyzing the count number of each cell per a certain number of CountBright. […]

human eosinophils = assay: Reactivity against human eosinophils, flow cytometry; type: binding; details: 0.12-10 μg/mL, 4° C., 1 hour; FIG. 8
Method: To human peripheral blood collected by adding a heparin sodium injection liquid, the same amount of physiological saline for injection as the human peripheral blood was added thereto and mixed with each other. 15 mL of Ficoll-Paque PREMIUM 1.084 (GE Healthcare) was added to a 50 mL centrifuge tube, 30 mL of the above described human peripheral blood diluted with physiological saline was overlaid thereon, and centrifugation was performed at room temperature and 1500 rpm for 30 minutes. […]
After the number of cells was counted, eosinophils were isolated by a negative selection method using CD16 MicroBeads, human (Miltenyi Biotec) according to the attached instructions. […]
After the cells were washed, CELL LAB Mouse Anti-Rat Kappa (kappa light chain specific) FITC (Beckman Coulter Inc.) diluted with SM was added to wells to which Lym2 antibody or BM16 was added and CELL LAB Goat Anti-Mouse IgG (γ chain specific) Fluorescein (FITC) Conjugate (Beckman Coulter Inc.) diluted with SM was added to wells to which 301108 was added at a final concentration of 10 μg/mL respectively to cause a reaction at 4° C. for 1 hour. The cells were washed again and suspended with SM, and the fluorescent intensity was analyzed by flow cytometry (BD Biosciences, FACS CantoII).

B1: LV0HV1: humanized Lym2 antibody, VL LV0 (SEQ ID NO: 33), VH HV1 (SEQ ID NO: 51) (antibody, V domains shown)
VH: EVQLVESGGGVVQPGRSLRLSCAASGFTFSNYYMAWVRQAPGKGLEWVATISYDGSSTYYRDSVKGRFTISRDNAKNSLYLQMNSLRAEDTATYYCARHRGYYYSGAGYFDYWGQGTMVTVSS
VL: DIVMTQTPLSLPVTPGESASISCRSSQSLEYSDGYTYLEWYLQKPGQSPQVLIYGVSNRFSGVPDRFSGSGSGTDFTLKISRVEAEDVGVYYCFQATHDPLTFGQGTKLEIK
cytotoxic activity against basophils (human basophils; Example 8, 0.01-1000 ng/mL, FIG. 3): comparable to the chimeric Lym2 antibody chLym2 | removal of basophils (human basophils; Example 14, 0.1-1000 ng/mL, FIG. 11): removed

B2: Lym2 antibody: rat anti-human CRTH2 monoclonal antibody from hybridoma Lym2, rat IgG2b; VH SEQ ID NO: 17, VL SEQ ID NO: 19 (antibody, listed as Rattus norvegicus, V domains shown)
VH: EVQLVESGGGLVQPGRSMKLSCAASGFTFSNYYMAWVRQAPKKGLEWVATISYDGSSTYYRDSVKGRFTISRDNAKSTLYLQMDSLRSEDTATYYCARHRGYYYSGAGYFDYWGQGVMVTVSS
VL: DVVLTQTPVSLSVTLGDQASISCRSSQSLEYSDGYTYLEWYLQKPGQSPQVLIYGVSNRFSGVPDRFIGSGSGTDFTLKISRVEPEDLGVYYCFQATHDPLTFGSGTKLEIK
reactivity against human eosinophils (human eosinophils): stronger reactivity
